{
  "source": "paper PMC7610145",
  "about": "“Transglutaminase-Mediated Cross-Linking of Tropoelastin to Fibrillin Stabilises the Elastin Precursor Prior to Elastic Fibre Assembly” (Journal of Molecular Biology, 2020)",
  "settings_in_all_cases": "both partners purified",
  "key": {"[1]": {"target": "T1, tropoelastin, SHELΔ26A (Synthetic Human Elastin without domain 26A) (human, UniProt P15502-2 27-724)", "T1 construct": "human tropoelastin without domain 26A; residues 27–724, the 60 kDa mature form of the secreted protein following removal of the signal peptide; the precursor counted on has 724 residues (isoform lacking domain 26A); contains K38 in domain 4; also called TE; full-length TE; source: expressed in bacteria, purified as described previously [23]", "T1 sequence (looked up)": "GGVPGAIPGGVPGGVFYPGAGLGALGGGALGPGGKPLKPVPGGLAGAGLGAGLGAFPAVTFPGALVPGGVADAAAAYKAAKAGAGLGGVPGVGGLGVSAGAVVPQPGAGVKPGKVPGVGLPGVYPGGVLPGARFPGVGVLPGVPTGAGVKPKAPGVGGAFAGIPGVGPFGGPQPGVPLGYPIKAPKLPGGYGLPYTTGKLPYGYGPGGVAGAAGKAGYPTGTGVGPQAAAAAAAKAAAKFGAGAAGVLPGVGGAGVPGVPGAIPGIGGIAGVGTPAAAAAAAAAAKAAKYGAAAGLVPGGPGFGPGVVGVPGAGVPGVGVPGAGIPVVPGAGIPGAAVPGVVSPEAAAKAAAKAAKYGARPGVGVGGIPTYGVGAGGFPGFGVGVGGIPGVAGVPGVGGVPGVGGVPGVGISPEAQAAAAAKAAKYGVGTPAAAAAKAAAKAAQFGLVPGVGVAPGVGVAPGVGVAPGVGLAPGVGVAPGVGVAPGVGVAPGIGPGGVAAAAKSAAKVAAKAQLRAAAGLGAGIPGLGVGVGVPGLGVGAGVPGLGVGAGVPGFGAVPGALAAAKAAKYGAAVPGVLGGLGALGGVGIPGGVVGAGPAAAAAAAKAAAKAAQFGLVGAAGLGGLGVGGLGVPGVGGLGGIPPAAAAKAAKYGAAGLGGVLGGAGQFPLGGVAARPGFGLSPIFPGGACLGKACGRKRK", "experiment": "SEC; PF2 and TE incubated with TG2 at a 1:1 ratio, separated on a Superose 6 column in 10 mM Hepes, 500 mM NaCl, 1 mM CaCl2 (pH 7.4); fractions on SDS-PAGE"}, "[2]": {"target": "T1, tropoelastin, SHELΔ26A (Synthetic Human …)", "experiment": "cross-linking; PF2 and TE incubated alone or together (1:1 or 2:1) at 16 °C for 2 h in 10 mM Hepes, 500 mM NaCl, 1 mM CaCl2 (pH 7.4), then with or without TG2 from guinea pig liver for a further 4 h; read by SDS-PAGE"}, "[3]": {"target": "T1, tropoelastin, SHELΔ26A (Synthetic Human …)", "experiment": "SEC-MALS; TG2 cross-linked complex eluting at ~10 ml, 0.5 mg/ml, Superose 6, 10 mM Tris–HCl (pH 7.4), 150 mM NaCl"}},
  "data": [
    {"binder": "fibrillin-1 PF2 fragment (domains TB1 to TB2, encoded by exons 9–17), natively glycosylated (domain or fragment, N-linked glycan at N448, fibrillin-1, fragment encompassing domains TB1 to TB2, encoded by exons 9–17; includes Q669 (TB2); SAXS data on PF2, TE and the complex are deposited in the SASDB (SAS2517, 2518, 2519); also called fibrillin PF2; fibrillin PF2 construct) not shown", "values": [
      {"measurement": "stoichiometry of the larger species", "setting": "[1]", "result": "2 copies of each (2:2)"},
      {"measurement": "stoichiometry N", "setting": "[2]", "result": "1 PF2:TE"},
      {"measurement": "stoichiometry N", "setting": "[3]", "result": "~1 PF2:TE"}
    ]}
  ]
}
